Measurements from paper PMC12246617, “Cryo-EM structures reveal the PP2A–B55α and Eya3 interaction that can be disrupted by a peptide inhibitor” (The Journal of Biological Chemistry, 2025).
Each block holds one binder with its values, some of them ahead of it.

What was measured:
[1] = target: T1, FLAG-hEya3 (human Eya3, full length) (human, UniProt Q99504 1-573); test: cryo-EM structure; PP2A–B55 + Eya3: 10 μM purified PP2A–B55 incubated with 15 μM full-length Eya3; 0.1% CHAPSO added before vitrification; 3.7 Å; details: both partners purified
T1 construct: Eya3, human, full length; cloned as FLAG-hEya3 in pCAG; only residues 65-86 are modelled in the structure; also called full-length Eya3; FLAG-Eya3
T1 sequence (looked up): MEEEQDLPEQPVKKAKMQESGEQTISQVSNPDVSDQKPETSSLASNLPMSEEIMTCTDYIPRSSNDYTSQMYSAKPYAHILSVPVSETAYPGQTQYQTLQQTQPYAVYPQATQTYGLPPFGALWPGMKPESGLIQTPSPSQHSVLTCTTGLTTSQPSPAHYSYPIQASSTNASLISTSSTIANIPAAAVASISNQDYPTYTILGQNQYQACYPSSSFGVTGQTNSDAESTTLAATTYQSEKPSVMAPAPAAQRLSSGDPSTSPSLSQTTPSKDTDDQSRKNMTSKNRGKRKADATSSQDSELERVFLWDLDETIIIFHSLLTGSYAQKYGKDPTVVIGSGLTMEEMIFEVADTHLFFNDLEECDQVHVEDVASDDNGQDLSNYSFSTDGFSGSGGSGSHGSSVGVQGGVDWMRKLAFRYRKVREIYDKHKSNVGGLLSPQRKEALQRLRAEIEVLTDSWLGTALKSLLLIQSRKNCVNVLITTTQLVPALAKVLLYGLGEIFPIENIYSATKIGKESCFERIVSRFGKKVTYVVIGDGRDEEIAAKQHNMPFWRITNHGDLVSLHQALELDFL

[2] = target: T1, FLAG-hEya3 (human Eya3, full length); test: mass photometry; proteins combined at a molar ratio of 1.5:1 in 20 mM Tris pH 8, 250 mM NaCl, 1 mM MnCl2, 0.5 mM TCEP, on ice, in the presence or absence of 25 μM B55i peptide; diluted to 100 nM before reading (Refeyn TwoMP); details: both partners purified

binding result [1]: binds
B1: FLAG-hB55 (B55α subunit of the PP2A–B55 holoenzyme purified from HEK293 FreeStyle cells) (natural protein, human)
chain: AGAGGGNDIQWCFSQVKGAVDDDVAEADIISTVEFNHSGELLATGDKGGRVVIFQQEQENKIQSHSRGEYNVYSTFQSHEPEFDYLKSLEIEEKINKIRWLPQKNAAQFLLSTNDKTIKLWKISERDKRPEGYNLKEEDGRYRDPTTVTTLRVPVFRPMDLMVEASPRRIFANAHTYHINSISINSDYETYLSADDLRINLWHLEITDRSFNIVDIKPANMEELTEVITAAEFHPNSCNTFVYSSSKGTIRLCDMRASALCDRHSKLFEEPEDPSNRSFFSEIISSISDVKFSHSGRYMMTRDYLSVKIWDLNMENRPVETYQVHEYLRSKLCSLYENDCIFDKFECCWNGSDSVVMTGSYNNFFRMFDRNTKRDITLEASRENNKPRTVLKPRKVCASGKRKKDEISVDSLDFNKKILHTAWHPKENIIAVATTNNLYIFQDKVN
notes: PP2A regulatory B subunit B55α, human; FLAG-hB55 in pCAG; The same chain as the first chain of m7, written alone for the contacts seen in the structures; also called FLAG-B55; B55 subunit

binding result [2]: binds
B2: His-hB55 (human PP2A regulatory subunit B55α) (natural protein, UniProt P63151 1-447, looked up)
chain: MAGAGGGNDIQWCFSQVKGAVDDDVAEADIISTVEFNHSGELLATGDKGGRVVIFQQEQENKIQSHSRGEYNVYSTFQSHEPEFDYLKSLEIEEKINKIRWLPQKNAAQFLLSTNDKTIKLWKISERDKRPEGYNLKEEDGRYRDPTTVTTLRVPVFRPMDLMVEASPRRIFANAHTYHINSISINSDYETYLSADDLRINLWHLEITDRSFNIVDIKPANMEELTEVITAAEFHPNSCNTFVYSSSKGTIRLCDMRASALCDRHSKLFEEPEDPSNRSFFSEIISSISDVKFSHSGRYMMTRDYLSVKIWDLNMENRPVETYQVHEYLRSKLCSLYENDCIFDKFECCWNGSDSVVMTGSYNNFFRMFDRNTKRDITLEASRENNKPRTVLKPRKVCASGKRKKDEISVDSLDFNKKILHTAWHPKENIIAVATTNNLYIFQDKVN
notes: PP2A regulatory B subunit B55α, human; cloned as His-hB55 in pFASTbac; Labelled on the His tag with RED-Tris-NTA dye for MST; also called His-B55; His-B55α; source: Hi5 insect cells, purified (nickel resin)
